Test results taken from patent publication US20170210802A1 (INNATE PHARMA, published 2017).

B1: CD19-F5-NKp46-3 (bispecific antibody, human IgG1, kappa)
chain 1: not shown
chain 2: not shown
chain 3: DIVMTQSPATLSVTPGDRVSLSCRASQSISDYLHWYQQKSHESPRLLIKYASQSISGIPSRFSGSGSGSDFTLSINSVEPEDVGVYYCQNGHSFPLTFGAGTKLELKASTKGPSVFPLAPSSKSTSGGTAALGCLVKDYFPEPVTVSWNSGALTSGVHTFPAVLQSSGLYSLSSVVTVPSSSLGTQTYICNVNHKPSNTKVDKRVEPKSCDKTH
notes: Heterotrimer with dimeric Fc domain; also called Format 5 (F5)
B2: CD19-F6-NKp46-3 (bispecific antibody, human IgG1, kappa)
chain 1: not shown
chain 2: not shown
chain 3: B1 chain 3
notes: also called Format 6 (F6)

Key:
[1] = target: T1, human FcRn (recombinant, Example 10) (human, UniProt P55899 24-297; P61769 21-119, limits assumed); assay: SPR, recombinant FcRn immobilised on CM5, SCK/Two state reaction
T1 construct: also called recombinant FcRn proteins

[2] = target: T2, Human NKp46 recombinant proteins (human, UniProt O76036 22-258, limits assumed); assay: SPR (Biacore T100), antibody captured on Protein-A chip, recombinant human NKp46 injected (6.25-400 nM), 1:1 kinetic model
T2 construct: also called recombinant human NKp46
Experimental: SPR measurements were performed on a Biacore T100 apparatus (Biacore GE Healthcare) at 25° C. In all Biacore experiments HBS-EP+(Biacore GE Healthcare) and NaOH 10 mM served as running buffer and regeneration buffer respectively. Sensorgrams were analyzed with Biacore T100 Evaluation software. Protein-A was purchase from (GE Healthcare). Human NKp46 recombinant proteins were cloned, produced and purified at Innate Pharma.
Protein-A proteins were immobilized covalently to carboxyl groups in the dextran layer on a Sensor Chip CM5. The chip surface was activated with EDC/NHS (N-ethyl-N′-(3-dimethylaminopropyl) carbodiimidehydrochloride and N-hydroxysuccinimide (Biacore GE Healthcare)). Protein-A was diluted to 10 μg/ml in coupling buffer (10 mM acetate, pH 5.6) and injected until the appropriate immobilization level was reached (i.e. 2000 RU). Deactivation of the remaining activated groups was performed using 100 mM ethanolamine pH 8 (Biacore GE Healthcare).
Monovalent affinity study was done following a regular Capture-Kinetic protocol recommended by the manufacturer (Biacore GE Healthcare kinetic wizard). Seven serial dilutions of human NKp46 recombinant proteins, ranging from 6.25 to 400 nM were sequentially injected over the captured Bi-Specific antibodies and allowed to dissociate for 10 min before regeneration. The entire sensorgram sets were fitted using the 1:1 kinetic binding model.

T2 sequence (O76036 22-258 limits assumed): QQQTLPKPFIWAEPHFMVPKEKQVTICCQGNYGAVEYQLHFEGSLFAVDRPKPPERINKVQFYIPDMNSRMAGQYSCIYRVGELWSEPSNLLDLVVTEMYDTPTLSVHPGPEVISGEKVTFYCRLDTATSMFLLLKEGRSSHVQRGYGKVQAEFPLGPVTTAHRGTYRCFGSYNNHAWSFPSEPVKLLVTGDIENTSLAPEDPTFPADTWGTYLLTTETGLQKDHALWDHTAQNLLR
T1 sequence (P55899 24-297 limits assumed, form in doubt, chain 1 of 2): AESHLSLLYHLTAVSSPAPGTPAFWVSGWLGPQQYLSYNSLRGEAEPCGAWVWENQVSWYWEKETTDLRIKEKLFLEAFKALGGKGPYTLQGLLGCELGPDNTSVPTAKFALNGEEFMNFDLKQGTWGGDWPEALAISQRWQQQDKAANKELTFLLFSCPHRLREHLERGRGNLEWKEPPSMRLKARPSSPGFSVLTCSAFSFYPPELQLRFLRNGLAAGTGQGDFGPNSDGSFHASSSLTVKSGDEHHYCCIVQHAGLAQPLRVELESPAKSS
T1 sequence (P61769 21-119 limits assumed, form in doubt, chain 2 of 2): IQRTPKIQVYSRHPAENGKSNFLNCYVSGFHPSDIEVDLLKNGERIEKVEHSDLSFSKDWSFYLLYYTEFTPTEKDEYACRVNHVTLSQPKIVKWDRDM

Binder	Kd [1]	Kd [2]	koff [2]	kon [2]
B1	2.6 nM	67 nM	0.0051 s⁻¹	75600 M⁻¹ s⁻¹
B2	6 nM	63 nM	0.00503 s⁻¹	79300 M⁻¹ s⁻¹
